# B1: MBP-SPRYD3 (natural protein, UniProt Q8NCJ5 1-442, looked up)
# chain: MRRTRRPRFVLMNKMDDLNLHYRFLNWRRRIREIREVRAFRYQERFKHILVDGDTLSYHGNSGEVGCYVASRPLTKDSNYFEVSIVDSGVRGTIAVGLVPQYYSLDHQPGWLPDSVAYHADDGKLYNGRAKGRQFGSKCNSGDRIGCGIEPVSFDVQTAQIFFTKNGKRVGSTIMPMSPDGLFPAVGMHSLGEEVRLHLNAELGREDDSVMMVDSYEDEWGRLHDVRVCGTLLEYLGKGKSIVDVGLAQARHPLSTRSHYFEVEIVDPGEKCYIALGLARKDYPKNRHPGWSRGSVAYHADDGKIFHGSGVGDPFGPRCYKGDIMGCGIMFPRDYILDSEGDSDDSCDTVILSPTARAVRNVRNVMYLHQEGEEEEEEEEEEEDGEEIEPEHEGRKVVVFFTRNGKIIGKKDAVVPSGGFFPTIGMLSCGEKVKVDLHPLSG
# notes: SPRYD3; pMal-c2-MBP-SPRYD3; also called recombinant SPRYD3; source: E. coli Rosetta (DE3), purified (Amylose resin)
# Target: T1, GST-USP11 (UniProt P51784 1-963)
# T1 construct: USP11; pGEX4T1-GST-USP11; made by subcloning; the bought USP11 plasmid is Addgene 22566; also called recombinant USP11; source: E. coli Rosetta (DE3), purified (Glutathione Sepharose 4B)
# Assay: pull-down; MBP pull-down: 10 μg MBP-SPRYD3 (or equimolar MBP) mixed with 10 μg GST-tagged protein in NP-40 buffer, 4 °C 1 h; Amylose resin 2 h at 4 °C; five washes; Western blot
# Settings: both partners purified
# T1 sequence (P51784 whole entry): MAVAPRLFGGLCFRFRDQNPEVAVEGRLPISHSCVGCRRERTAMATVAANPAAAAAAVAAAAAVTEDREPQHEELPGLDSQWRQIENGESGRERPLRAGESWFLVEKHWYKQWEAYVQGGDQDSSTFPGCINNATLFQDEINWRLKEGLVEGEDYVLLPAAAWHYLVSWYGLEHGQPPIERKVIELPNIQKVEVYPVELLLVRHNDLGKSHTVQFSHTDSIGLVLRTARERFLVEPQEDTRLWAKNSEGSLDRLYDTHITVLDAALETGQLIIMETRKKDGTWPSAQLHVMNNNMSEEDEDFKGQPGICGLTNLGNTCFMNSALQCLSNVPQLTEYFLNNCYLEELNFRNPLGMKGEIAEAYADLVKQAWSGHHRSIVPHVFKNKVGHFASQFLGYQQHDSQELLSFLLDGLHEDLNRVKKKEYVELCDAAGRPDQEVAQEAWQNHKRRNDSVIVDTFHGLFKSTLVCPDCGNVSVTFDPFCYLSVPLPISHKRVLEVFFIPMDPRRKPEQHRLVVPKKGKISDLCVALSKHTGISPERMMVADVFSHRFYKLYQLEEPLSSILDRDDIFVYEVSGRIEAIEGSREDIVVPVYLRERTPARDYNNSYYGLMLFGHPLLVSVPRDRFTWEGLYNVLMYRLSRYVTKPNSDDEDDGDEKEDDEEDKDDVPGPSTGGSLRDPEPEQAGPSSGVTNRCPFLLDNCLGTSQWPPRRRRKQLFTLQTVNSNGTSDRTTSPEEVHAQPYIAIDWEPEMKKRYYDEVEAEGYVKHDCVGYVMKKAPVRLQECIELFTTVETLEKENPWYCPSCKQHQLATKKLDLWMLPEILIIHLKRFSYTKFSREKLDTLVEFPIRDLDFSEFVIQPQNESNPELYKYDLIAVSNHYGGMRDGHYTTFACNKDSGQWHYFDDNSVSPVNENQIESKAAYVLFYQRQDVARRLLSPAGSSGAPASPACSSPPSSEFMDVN
binder,measurement,value
B1,binding result,binds

# Source: PMC12664034, “The E3 ubiquitin ligase SPRYD3-MYCBP2(PAM) regulates mitotic cell fate and ubiquitination of USP11 to control spindle assembly” (The Journal of Biological Chemistry, 2025)
